Blank lines part the entries; values can stand above or below the molecule they belong to. Ends that are not written are not given here.
T1: plasminogen fragment K4 (UniProt P00747 374-459)
T1 construct: range 354-439
T1 sequence (looked up): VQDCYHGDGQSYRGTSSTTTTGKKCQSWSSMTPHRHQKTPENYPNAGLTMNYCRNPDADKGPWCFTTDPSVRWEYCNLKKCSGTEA

B1: Plasminogen (ligand, UniProt P00747 20-810, looked up)
chain: EPLDDYVNTQGASLFSVTKKQLGAGSIEECAAKCEEDEEFTCRAFQYHSKEQQCVIMAENRKSSIIIRMRDVVLFEKKVYLSECKTGNGKNYRGTMSKTKNGITCQKWSSTSPHRPRFSPATHPSEGLEENYCRNPDNDPQGPWCYTTDPEKRYDYCDILECEEECMHCSGENYDGKISKTMSGLECQAWDSQSPHAHGYIPSKFPNKNLKKNYCRNPDRELRPWCFTTDPNKRWELCDIPRCTTPPPSSGPTYQCLKGTGENYRGNVAVTVSGHTCQHWSAQTPHTHNRTPENFPCKNLDENYCRNPDGKRAPWCHTTNSQVRWEYCKIPSCDSSPVSTEQLAPTAPPELTPVVQDCYHGDGQSYRGTSSTTTTGKKCQSWSSMTPHRHQKTPENYPNAGLTMNYCRNPDADKGPWCFTTDPSVRWEYCNLKKCSGTEASVVAPPPVVLLPDVETPSEEDCMFGNGKGYRGKRATTVTGTPCQDWAAQEPHRHSIFTPETNPRAGLEKNYCRNPDGDVGGPWCYTTNPRKLYDYCDVPQCAAPSFDCGKPQVEPKKCPGRVVGGCVAHPHSWPWQVSLRTRFGMHFCGGTLISPEWVLTAAHCLEKSPRPSSYKVILGAHQEVNLEPHVQEIEVSRLFLEPTRKDIALLKLSSPAVITDKVIPACLPSPNYVVADRTECFITGWGETQGTFGAGLLKEAQLPVIENKVCNRYEFLNGRVQSTELCAGHLAGGTDSCQGDSGGPLVCFEKDKYILQGVTSWGLGCARPNKPGVYVRVSRFVTWIEGVMRNN
modifications: directly biotinylated in the assays of Examples 7-9; coupled to Sepharose in Example 1
notes: The same entry is used for unlabelled, biotinylated and Sepharose-coupled plasminogen; also called Plg; biotinylated plasminogen
B2: peptide CEQSRFFIDK (SEQ ID NO: 34), corresponding to the C terminus of human Plg-RKT (peptide)
peptide: CEQSRFFIDK
notes: also called wild type peptide
B3: Plg-RKT carboxyl-terminal peptide CEQSKLFSDK (SEQ ID NO: 33) (peptide)
peptide: CEQSKLFSDK
modifications: also: coupled to bovine serum albumin (BSA), attachment site not given here
notes: also called C-terminal peptide of mouse Plg-RKT; Plg-RKT polypeptide

Legend:
[1] = biological target: B1; assay: ELISA, detection control: plasminogen bound to BSA-coupled peptide, isotype control instead of anti-plasminogen MAb
[2] = biological target: B3; assay: ELISA on BSA-coupled peptide, anti-plasminogen MAb detection
Excerpt: Our isolation method was consistent with exposure of the carboxyl-terminus of Plg-RKT (with its carboxyl-terminal lysine) on the cell surface and also with the ability of the carboxyl-terminal domain to bind to plasminogen. For verification, we tested whether a synthetic peptide, corresponding to the C-terminus of Plg-RKT could bind plasminogen. The peptide, […] (SEQ ID NO: 33) corresponding to the ten C-terminal amino acids of Plg-RKT with cysteine substituted for R₁₃₈) was coupled to bovine serum albumin (BSA) and then coated onto wells of microtiter plates at 10 μg/ml. The wells were blocked with 5% BSA. Plasminogen (0.2 μM) was incubated with the wells, followed by our anti-plasminogen MAb ³⁶ and detection with HRP-conjugated goat anti-mouse IgG (Biosource, Camarillo, Calif.). Plasminogen bound to the peptide in a concentration dependent manner with 50% maximal binding achieved at a plasminogen concentration of ˜10 nM. The binding was specific because it was blocked in the presence of epsilon-aminocaproic acid (EACA), consistent with the ability of EACA to inhibit plasminogen binding to differentiated Hoxa9-ER4 cells. […] In controls for the detection method, O.D.₄₉₀ values obtained using an isotype control antibody or in the absence of added plasminogen were <5% of the values for plasminogen binding to the BSA-coupled peptide detected with anti-plasminogen MAb.

[3] = biological target: B1; assay: competition ELISA, soluble peptide against biotinylated plasminogen on immobilized …-BSA
[4] = biological target: T1, plasminogen fragment K4; assay: competition ELISA against biotinylated plasminogen on immobilized peptide
Description: (§1) 9. Recognition of Plg-RKT by Plasminogen Fragments in Other Assays to Define the ligand recognition specificity of Plg-RKT for plasminogen. the Plg-RKT polypeptide, […] (SEQ ID NO: 33), was coupled to microtiter wells. Plasminogen was directly biotinylated and then incubated with the immobilized peptide and detected with streptavidin-HRP, as above. (Plasminogen bound to the peptide in a concentration-dependent manner. In controls for specificity, biotinylated-Plg binding was competed by unlabeled Plg and no biotinylated-Plg binding to the reverse peptide was detected.) Plasminogen domains containing disulfide bonded kringle (K) structures were obtained by elastase digestion as described ³⁹. (K1-3 is comprised of the plasminogen amino acid sequences, Tyr⁷⁹-Val³³⁷ or Tyr⁷⁹-Val³⁵³. K4 is contained within the plasminogen amino acid sequences, Val³⁵⁴-Ala⁴³⁹. K5-PD is contained within the plasminogen amino acid sequences, Val⁴⁴²-Asn⁷⁹⁰ and contains kringle 5 as well as the latent protease domain.)

[5] = biological target: T2, plasminogen fragment K1-3 (UniProt P00747 99-357); assay: as above
T2 construct: range 79-337 or 79-353; it may not count on the precursor entry
Description: as §1

O.D.490 as percent of the value with anti-plasminogen MAb [1]: < 5%
Molecule: isotype control antibody (Example 4)

Molecule: B1
EC50 [2]: ~10 nM

Molecule: B2
IC50 [3]: 1000 nM

Molecule: B3
binding result [4]: binds | binding result [5]: binds

Reference: patent publication US20100316648A1 (published 2010)
